This note sets out measurements from patent US11130803B2, “Isoform-selective TGFβ1 inhibitors and use thereof” (Scholar Rock, Inc., priority 2018, dated 2021).

Read-outs that look alike come from different tables or passages of the source.

Assay [1] relates to hLTBP1-/hLTBP3-proTGFβ1 vs hGARP-/hLRRC33-proTGFβ1 complexes. In words: Solution equilibrium titration: relative affinity (bias) LTBP complexes vs cell-associated complexes. It is filed as binding, human. The following applies: MSD-SET; for (H) G/D (fold bias): ratio of average KD cell-associated / matrix-associated. The text has this: Context-biased: As used herein, “context-biased antibodies” refer to a type of conformational antibodies that binds an antigen with differential affinities when the antigen is associated with (i.e., bound to or attached to) an interacting protein or a fragment thereof. Thus, a context-biased antibody that specifically binds an epitope within proTGFβ1 may bind LTBP1-proTGFβ1, LTBP3-proTGFβ1, GARP-proTGFβ1 and LRRC33-proTGFβ1 with different affinities. […] Relative affinities of [matrix-associated complexes]: [cell-associated complexes] may be obtained by taking average KD values of the former, taking average KD values of the latter, and calculating the ratio of the two, as exemplified herein.
In a yet further aspect, the present disclosure provides context-biased TGFβ1 inhibitors. The context-biased antibodies include LTBP-biased antibodies with higher affinities for ECM-associated LLCs than for cell-associated LLCs wherein the affinities are measured at equilibrium.

The target in assay [2] is T1, hLRRC33-proTGFβ1 (Homo sapiens, UniProt P01137).
T1 construct: made in house
Description: MSD-SET solution equilibrium titration binding. Particulars: MSD-SET at equilibrium, hIgG4, human complex; in M. From the text: (§1) Solution Equilibrium Titration (SET): The SET is an assay whereby binding between two molecules (such as an antigen and an antibody that binds the antigen) can be measured at equilibrium in a solution. For example, Meso-Scale Discovery (“MSD”)-based SET, or MSD-SET, is a useful mode of determining dissociation constants for particularly high-affinity protein-protein interactions at equilibrium, such as picomolar-affinity antibodies binding to their antigens (see, for example: Ducata et al. (2015) J Biomolecular Screening 20(10): 1256-1267). The SET-based assays are particularly useful for determining KD values of antibodies with sub-nanomolar (e.g., picomolar) affinities.
(§2) In view of this, it is contemplated that assays that measure binding affinities of such antibodies at equilibrium may more accurately represent the mode of target engagement in vivo. Thus, MSD-SET-based binding assays (or other suitable assays) may be performed, as exemplified in Table 9 below.
(§3) Solution equilibrium titration (“SET”) is an assay whereby binding between two molecules (such as an antigen and an antibody that binds the antigen) can be measured at equilibrium in a solution. For example, Meso-Scale Discovery (“MSD”)-based SET, or MSD-SET, is a useful mode of determining dissociation constants for particularly high-affinity protein-protein interactions at equilibrium (see, for example: Ducata et al. (2015) J Biomolecular Screening 20(10): 1256-1267). The SET-based assays are particularly useful for determining KD values of antibodies with sub-nanomolar (e.g., picomolar) affinities.
(§4) For solution equilibrium titration-based binding assays, protein complexes that comprise one of the presenting molecules such as those shown above may be employed as antigen (presenting molecule-TGFβ1 complex, or an LLC). Test antibodies are allowed to form antigen-antibody complex in solution. Antigen-antibody reaction mixtures are incubated to allow an equilibrium to be reached; the amount of the antigen-antibody complex present in the assay reactions can be measured by suitable means well known in the art. As compared to BLI-based assays, SET-based assays are less affected by on/off rates of the antigen-antibody complex, allowing sensitive detection of very high affinity interactions.

For assay [3], the target named is T2, hLTBP3-proTGFβ1 (Homo sapiens, UniProt P01137).
T2 construct: made in house; host or cells: Expi293F cells, transient co-transfection
In words: MSD-SET solution equilibrium titration binding. The following applies: MSD-SET at equilibrium, hIgG4, human complex; in M.
Source text: as §1, §2, §3, §4

Assay [4] concerns the target T3, hGARP-proTGFβ1 (Homo sapiens, UniProt P01137).
T3 construct: made in house
Description: MSD-SET solution equilibrium titration binding. The following applies: MSD-SET at equilibrium, hIgG4, human complex; in M.
Source text: as §1, §2, §3, §4

In assay [5] the target is T4, hLTBP1-proTGFβ1 (Homo sapiens, UniProt P01137).
T4 construct: made in house; host or cells: Expi293F cells, transient co-transfection
In words: MSD-SET solution equilibrium titration binding. The following applies: MSD-SET at equilibrium, hIgG4, human complex; in M.
Source text: as §1, §2, §3, §4

Where [6] appears, read: average KD of (B) and (C), read-out: (D) ECM AVRG.
Where [7] appears, read: average KD of (E) and (F), read-out: (G) Cell AVRG.

T2 sequence (P01137 30-390): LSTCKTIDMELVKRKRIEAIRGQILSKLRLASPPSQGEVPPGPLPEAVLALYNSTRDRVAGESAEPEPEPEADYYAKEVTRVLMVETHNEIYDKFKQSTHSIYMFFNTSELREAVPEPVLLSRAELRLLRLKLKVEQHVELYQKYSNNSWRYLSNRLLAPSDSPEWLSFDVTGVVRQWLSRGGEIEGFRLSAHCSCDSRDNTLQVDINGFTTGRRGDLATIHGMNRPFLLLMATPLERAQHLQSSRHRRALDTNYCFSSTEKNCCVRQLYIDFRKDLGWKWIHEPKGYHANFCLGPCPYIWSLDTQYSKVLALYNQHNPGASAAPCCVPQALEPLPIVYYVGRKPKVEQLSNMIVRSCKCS
T2 sequence (Q9NS15 866-1039 partner limits assumed): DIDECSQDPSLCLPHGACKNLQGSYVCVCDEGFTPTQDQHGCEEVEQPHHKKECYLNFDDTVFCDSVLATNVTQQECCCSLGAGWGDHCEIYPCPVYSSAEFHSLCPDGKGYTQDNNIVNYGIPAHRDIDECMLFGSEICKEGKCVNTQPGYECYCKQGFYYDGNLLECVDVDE
T3 sequence (P01137 30-390): as the sequence (P01137 30-390) above
T3 sequence (Q14392 20-627 partner limits assumed): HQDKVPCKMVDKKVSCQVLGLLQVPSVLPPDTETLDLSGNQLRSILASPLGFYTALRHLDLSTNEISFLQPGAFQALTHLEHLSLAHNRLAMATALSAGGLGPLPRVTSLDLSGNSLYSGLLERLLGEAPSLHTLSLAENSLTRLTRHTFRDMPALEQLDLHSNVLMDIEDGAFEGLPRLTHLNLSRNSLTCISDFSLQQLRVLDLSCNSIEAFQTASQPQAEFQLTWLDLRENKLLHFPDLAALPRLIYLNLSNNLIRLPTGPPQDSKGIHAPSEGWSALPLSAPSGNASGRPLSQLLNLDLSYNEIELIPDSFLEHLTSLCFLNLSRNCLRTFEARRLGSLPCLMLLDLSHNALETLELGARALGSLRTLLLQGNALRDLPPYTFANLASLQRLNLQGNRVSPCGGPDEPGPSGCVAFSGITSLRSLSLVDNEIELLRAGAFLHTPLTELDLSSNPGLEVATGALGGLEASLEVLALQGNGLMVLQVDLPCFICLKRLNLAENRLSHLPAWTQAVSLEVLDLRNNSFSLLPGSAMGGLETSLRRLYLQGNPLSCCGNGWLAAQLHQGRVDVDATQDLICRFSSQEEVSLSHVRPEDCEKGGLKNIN
T4 sequence (P01137 30-390): as the sequence (P01137 30-390) above
T4 sequence (Q14766 873-1507 partner): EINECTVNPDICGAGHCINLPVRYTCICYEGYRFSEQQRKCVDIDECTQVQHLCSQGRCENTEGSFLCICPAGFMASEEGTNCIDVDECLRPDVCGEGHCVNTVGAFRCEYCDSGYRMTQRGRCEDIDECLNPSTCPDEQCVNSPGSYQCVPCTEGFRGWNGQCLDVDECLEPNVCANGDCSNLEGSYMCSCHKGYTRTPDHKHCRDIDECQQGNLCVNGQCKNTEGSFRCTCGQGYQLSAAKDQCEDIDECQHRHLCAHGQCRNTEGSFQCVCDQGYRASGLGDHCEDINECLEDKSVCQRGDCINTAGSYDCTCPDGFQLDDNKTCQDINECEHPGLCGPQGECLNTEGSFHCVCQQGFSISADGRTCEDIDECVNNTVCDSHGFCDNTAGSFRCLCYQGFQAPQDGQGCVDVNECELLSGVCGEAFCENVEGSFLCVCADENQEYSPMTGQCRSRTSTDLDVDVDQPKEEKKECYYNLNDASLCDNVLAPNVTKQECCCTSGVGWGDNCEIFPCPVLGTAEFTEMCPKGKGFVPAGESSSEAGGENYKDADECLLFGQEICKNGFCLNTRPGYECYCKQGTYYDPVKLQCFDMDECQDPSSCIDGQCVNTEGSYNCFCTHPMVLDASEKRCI
T1 sequence (P01137 30-390): as the sequence (P01137 30-390) above
T1 sequence (Q86YC3 19-650 partner limits assumed): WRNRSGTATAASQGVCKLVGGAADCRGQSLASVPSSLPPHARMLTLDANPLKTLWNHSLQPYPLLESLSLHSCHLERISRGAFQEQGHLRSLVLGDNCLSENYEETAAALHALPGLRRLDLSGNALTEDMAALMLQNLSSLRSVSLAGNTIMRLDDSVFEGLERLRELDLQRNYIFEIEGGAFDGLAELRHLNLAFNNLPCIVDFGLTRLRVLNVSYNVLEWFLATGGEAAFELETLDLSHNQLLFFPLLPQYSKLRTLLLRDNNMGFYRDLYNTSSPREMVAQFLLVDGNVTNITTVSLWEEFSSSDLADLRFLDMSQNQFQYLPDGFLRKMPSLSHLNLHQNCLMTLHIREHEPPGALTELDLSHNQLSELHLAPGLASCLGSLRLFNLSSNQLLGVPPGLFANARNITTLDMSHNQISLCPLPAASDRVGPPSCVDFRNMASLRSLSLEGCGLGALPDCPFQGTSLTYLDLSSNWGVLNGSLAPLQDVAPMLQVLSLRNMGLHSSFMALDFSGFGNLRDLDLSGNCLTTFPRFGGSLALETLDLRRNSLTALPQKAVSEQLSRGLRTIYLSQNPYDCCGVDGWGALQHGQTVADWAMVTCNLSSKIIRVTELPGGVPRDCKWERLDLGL

B1: Ab32: monoclonal antibody; VH SEQ ID NO: 140, VL SEQ ID NO: 15 (antibody, V domains shown)
VH: EVQLVESGGGLVQPGGSLRLSCAASGFTFSSFSMNWVRQAPGKGLEWVSYISPSADTIYYADSVKGRFTISRDNAKNTLYLQMNSLRAEDTAVYYCARGVWDMGDMLDPWGQGTLVTVSS
VL: DIQMTQSPSSLSASVGDRVTITCQASQDITNYLNWYQQKPGKAPKLLIYDASNLETGVPSRFSGSGSGTDFTFTISSLQPEDIATYYCQQADNHPPWTFGGGTKVEIK
In the case of B1, the Kd came out at 32 pM in assay [1] (setting [6]) and 51 pM in assay [1] (setting [7]). In addition, in assay [1], the “(H) G/D (fold bias)” value worked out at 1.60 fold. The “(F) hLRRC33, Cell-associated proTGFβ1 KD” value in assay [2] is 8.70E−11. The “(C) hLTBP3, Matrix-associated proTGFβ1 KD” value (“(C) hLTBP3” for short) in assay [3] is 2.60E−11. Further, in assay [4], the “(E) hGARP, Cell-associated proTGFβ1 KD” value was found to be 1.50E−11. In addition, the “(B) hLTBP1, Matrix-associated proTGFβ1 KD” value (“(B) hLTBP1” for short) in assay [5] is recorded as 3.70E−11.

B2: Ab33: monoclonal antibody; VH SEQ ID NO: 141, VL SEQ ID NO: 15 (antibody, V domains shown)
VH: EVQLVESGGGLVQPGGSLRLSCAASGFTFSSFSMNWVRQAPGKGLEWVSYISPSADTIYYADSVKGRFTISRDNAKNTLYLQMNSLRAEDTAVYYCAHGVLDYGDMLDPWGQGTLVTVSS
VL: DIQMTQSPSSLSASVGDRVTITCQASQDITNYLNWYQQKPGKAPKLLIYDASNLETGVPSRFSGSGSGTDFTFTISSLQPEDIATYYCQQADNHPPWTFGGGTKVEIK
Consider B2, for which the Kd in assay [1] (setting [6]) came to 9 pM; in assay [1] (setting [7]), 27 pM. The “(H) G/D (fold bias)” value in assay [1] worked out at 3.00 fold. For the same molecule, the “(F) hLRRC33, Cell-associated proTGFβ1 KD” value in assay [2] stood at 4.60E−11. For the same molecule, in assay [3], the “(C) hLTBP3” value came to 7.00E−12. In addition, the “(E) hGARP, Cell-associated proTGFβ1 KD” value in assay [4] amounted to 7.80E−12. Also, the “(B) hLTBP1” value in assay [5] came out at 1.10E−11.

B3: Ab12: monoclonal antibody; VH SEQ ID NO: 237, VL SEQ ID NO: 241 (antibody, V domains shown)
VH: QVQLVESGGGVVQPGRSLRLSCAASGFTFSDYAMVWVRQAPGKGLEWVSAISGSGFTTYYADSVKGRFTISRDNSKNTLYLQMNSLRAEDTAVYYCARVSSGHWDFDYWGQGTLVTVSS
VL: DIQLTQSPSSLSASVGDRVTITCRASQSISSYLNWYQQKPGKAPKLLIYAASNLQSGVPSRFSGSGSGTDFTLTISSLQPEDFATYYCQQTYTVPLTFGGGTKVEIK
Turning to B3, the Kd in assay [1] (setting [6]) amounted to 720 pM; in assay [1] (setting [7]), 2450 pM. Further, the “(H) G/D (fold bias)” value in assay [1] was 3.40 fold. Besides, in assay [2], the “(F) hLRRC33, Cell-associated proTGFβ1 KD” value came to 3.20E−09. In assay [3], the “(C) hLTBP3” value came to 6.60E−10. Besides, the “(E) hGARP, Cell-associated proTGFβ1 KD” value in assay [4] is 1.70E−09. Further, the “(B) hLTBP1” value in assay [5] was 7.80E−10.

B4: Ab19: monoclonal antibody; VH SEQ ID NO: 250, VL SEQ ID NO: 241 (antibody, V domains shown)
VH: QVQLVESGGGVVQPGRSLRLSCAASGFTFSSFAMTWVRQAPGKGLEWVSAISGSGAATYFADSVKGRFTISRDNSKNTLYLQMNSLRAEDTAVYYCARVSSGHWDFDEWGQGTLVTVSS
VL: DIQLTQSPSSLSASVGDRVTITCRASQSISSYLNWYQQKPGKAPKLLIYAASNLQSGVPSRFSGSGSGTDFTLTISSLQPEDFATYYCQQTYTVPLTFGGGTKVEIK
Turning to B4, the Kd in assay [1] (setting [6]) amounted to 2840 pM; in assay [1] (setting [7]), 4750 pM. In assay [1], the “(H) G/D (fold bias)” value worked out at 1.68 fold. Besides, the “(F) hLRRC33, Cell-associated proTGFβ1 KD” value in assay [2] came out at 5.70E−09. Besides, the “(C) hLTBP3” value in assay [3] is on record as 2.70E−09. Moreover, the “(E) hGARP, Cell-associated proTGFβ1 KD” value in assay [4] is given as 3.80E−09. Further, the “(B) hLTBP1” value in assay [5] turned out to be 2.10E−09.
